The values below come from paper PMC10858868, “TFIP11 promotes replication fork reversal to preserve genome stability”.

For this data set, the target named is T1, TFIP11 (UniProt Q9UBB9 1-837).
T1 sequence: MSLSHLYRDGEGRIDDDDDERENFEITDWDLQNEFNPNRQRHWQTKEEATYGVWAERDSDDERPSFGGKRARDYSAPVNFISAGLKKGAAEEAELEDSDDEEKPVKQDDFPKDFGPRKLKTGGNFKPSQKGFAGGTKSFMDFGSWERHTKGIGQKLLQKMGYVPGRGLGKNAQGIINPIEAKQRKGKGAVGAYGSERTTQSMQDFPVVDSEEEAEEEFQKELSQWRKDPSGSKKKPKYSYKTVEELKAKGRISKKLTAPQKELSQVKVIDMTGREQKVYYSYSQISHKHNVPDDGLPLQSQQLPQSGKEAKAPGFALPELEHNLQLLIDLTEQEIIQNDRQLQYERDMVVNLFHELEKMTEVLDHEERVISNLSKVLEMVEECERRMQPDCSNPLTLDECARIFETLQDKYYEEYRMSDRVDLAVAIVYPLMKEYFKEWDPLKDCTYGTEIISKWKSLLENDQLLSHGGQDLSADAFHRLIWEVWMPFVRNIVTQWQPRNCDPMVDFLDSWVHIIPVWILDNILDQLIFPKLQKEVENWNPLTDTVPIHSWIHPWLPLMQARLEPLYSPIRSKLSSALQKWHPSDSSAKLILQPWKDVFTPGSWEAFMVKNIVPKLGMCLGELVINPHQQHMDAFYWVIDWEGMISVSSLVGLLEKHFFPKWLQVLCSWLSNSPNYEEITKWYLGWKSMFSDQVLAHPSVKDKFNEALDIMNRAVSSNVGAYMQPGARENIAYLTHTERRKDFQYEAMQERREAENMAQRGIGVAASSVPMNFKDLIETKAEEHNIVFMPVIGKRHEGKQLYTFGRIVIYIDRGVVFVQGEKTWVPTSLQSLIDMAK
Put plainly: EMSA; 15, 30 nM TFIP11; 0.5 nM DNA; at most about 6% bound in Source Data; EMSA: 10 mM MgCl2, 2.5% glycerol, 0.05% NP-40, 0.5 nM biotin-DNA, 20 min, room temperature (Pierce LightShift kit). Pull-down: 20 mM Tris-HCl pH 7.5, 120 mM NaCl, 0.1% Triton X-100, 2 mM CaCl2, 10 mM Mg(OAc)2, 1 mM DTT, 0.1 mg/mL BSA, 4 °C, 30 min. Conditions: protein: recombinant, tags: His-SUMO (N-terminal). Background: Mobility shift assays separate free from complexed probe on a gel.

B1: dsDNA (oligo 1 + oligo 2) (dsDNA)
DNA 1: GACGCTGCCGAATTCTACCAGTGCCTTGCTAGGACATCTTTGCCCACCTGCAGGTTCAC
DNA 2: GTGAACCTGCAGGTGGGCAAAGATGTCCTAGCAAGGCACTGGTAGAATTCGGCAGCGTC
Take B1: under “label: 5'-biotin on oligo 1, blunt”, the binding result is reported as “no binding”.

B2: ssDNA (oligo 1) (ssDNA)
DNA: GACGCTGCCGAATTCTACCAGTGCCTTGCTAGGACATCTTTGCCCACCTGCAGGTTCAC
As to B2, the binding result (label: 5'-biotin, single strand) is recorded as “no binding”.
